Experimental data: patent US20210284747A1 (CAPELLA BIOSCIENCE, published 2021)
Like-named read-outs stand apart in the source and are kept apart here.

Assays:
[1] = target: LIGHT without residues 81-84, stably expressed on EL4 cells (EL4-NC-LIGHT); test: cell-based or functional assay
[2] = target: T1, Human LIGHT stably expressed on EL4 cells (EL4-LIGHT) (human, UniProt O43557 1-240); test: flow cytometry, against F19 and F23
T1 construct: whole, on cells; also called membrane LIGHT

[3] = target: T1, Human LIGHT stably expressed on EL4 …; test: flow cytometry, EL4-LIGHT cells
Procedure: The EC50 of the 7 mAbs were calculated from binding to EL4-LIGHT cells (FIG. 1). […] Non-linear regression analysis was performed to determine the functional binding affinity measurement or EC50 for each mAb. A range of functional affinities was observed.

[4] = target: Full length LIGHT G188A on HEK293FF cells (Homo sapiens (Human), UniProt O43557 1-240); test: flow cytometry, HEK293FF, mAb at EC50
Sequence of Full length LIGHT G188A on HEK293FF cells (O43557 whole entry G188A): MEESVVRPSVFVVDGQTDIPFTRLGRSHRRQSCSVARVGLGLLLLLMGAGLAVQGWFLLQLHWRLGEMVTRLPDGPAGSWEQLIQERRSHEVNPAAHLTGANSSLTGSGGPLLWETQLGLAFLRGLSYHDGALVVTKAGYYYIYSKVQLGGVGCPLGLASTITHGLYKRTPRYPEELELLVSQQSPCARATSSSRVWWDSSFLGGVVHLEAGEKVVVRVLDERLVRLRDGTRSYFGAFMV
Procedure: (§1) The day of transfection the cells were seeded in a 24-well plate at 0.6×10⁶ cells/well. Lipofectamine 2000 (ThermoFisher scientific), 3 ul, was mixed with 50 μl OptiMEM medium (GIBCO) and then added to 50 μl Opti-MEM medium containing 3 ug plasmid DNA and incubated for 20 min at RT to form DNA-Lipofectamine 2000 complexes which were then added to the HEK293FF cells and incubated at 37° C., 5% CO₂ for 24 hours. For each construct, in duplicate, 0.60×10⁶ cells/well were used in a 96 well round bottom plate. Cells were centrifuged for 3 minutes at 300×g at 4° C., the supernatant discarded and the cells washed with 150 μl FACS buffer (0.5% FBS in phosphate buffered saline). This process was repeated 3 times. […] The wells were washed 3 times as above and 50 μl/well of goat anti-human IgG FITC (1:1500 dilution in FACS buffer, SIGMA F9512-2ML) or goat anti-mouse APC (1/500 dilution in FACS buffer, BDBioscience 550826), as appropriate, was added to the wells and incubated for 30 min at 4° C. protected from the light, with shaking. The cells were then washed as above, resuspended in 100 μl of FACS buffer and binding of the antibodies to the constructs was measured using flow cytometry and a total of 10,000 cells were acquired for each sample. Controls of buffer and secondary antibody only as well as HEK293FF non transfected cells were also used.

[5] = target: Full length LIGHT R189A on HEK293FF cells (Homo sapiens (Human), UniProt O43557 1-240); test: flow cytometry, HEK293FF, mAb at EC50
Sequence of Full length LIGHT R189A on HEK293FF cells (O43557 whole entry R189A): as the sequence (O43557 whole entry G188A) above, with A188G, R189A counted along it
Procedure: as §1

[6] = target: Full length LIGHT A190S on HEK293FF cells (Homo sapiens (Human), UniProt O43557 1-240); test: flow cytometry, HEK293FF, mAb at EC50
Sequence of Full length LIGHT A190S on HEK293FF cells (O43557 whole entry A190S): as the sequence (O43557 whole entry G188A) above, with A188G, A190S counted along it
Procedure: as §1

[7] = target: Full length LIGHT T191A on HEK293FF cells (Homo sapiens (Human), UniProt O43557 1-240); test: flow cytometry, HEK293FF, mAb at EC50
Sequence of Full length LIGHT T191A on HEK293FF cells (O43557 whole entry T191A): as the sequence (O43557 whole entry G188A) above, with A188G, T191A counted along it
Procedure: as §1

[8] = target: Full length LIGHT S192A on HEK293FF cells (Homo sapiens (Human), UniProt O43557 1-240); test: flow cytometry, HEK293FF, mAb at EC50
Sequence of Full length LIGHT S192A on HEK293FF cells (O43557 whole entry S192A): as the sequence (O43557 whole entry G188A) above, with A188G, S192A counted along it
Procedure: as §1

[9] = target: Full length LIGHT S193A on HEK293FF cells (Homo sapiens (Human), UniProt O43557 1-240); test: flow cytometry, HEK293FF, mAb at EC50
Procedure: as §1

[10] = target: Full length LIGHT S194A on HEK293FF cells (Homo sapiens (Human), UniProt O43557 1-240); test: flow cytometry, HEK293FF, mAb at EC50
Sequence of Full length LIGHT S194A on HEK293FF cells (O43557 whole entry S194A): as the sequence (O43557 whole entry G188A) above, with A188G, S194A counted along it
Procedure: as §1

[11] = target: Full length LIGHT R195A on HEK293FF cells (Homo sapiens (Human), UniProt O43557 1-240); test: flow cytometry, HEK293FF, mAb at EC50
Sequence of Full length LIGHT R195A on HEK293FF cells (O43557 whole entry R195A): as the sequence (O43557 whole entry G188A) above, with A188G, R195A counted along it
Procedure: as §1

[12] = target: Full length LIGHT V196A on HEK293FF cells (Homo sapiens (Human), UniProt O43557 1-240); test: flow cytometry, HEK293FF, mAb at EC50
Procedure: as §1

[13] = target: Full length LIGHT W197A on HEK293FF cells (Homo sapiens (Human), UniProt O43557 1-240); test: flow cytometry, HEK293FF, mAb at EC50
Sequence of Full length LIGHT W197A on HEK293FF cells (O43557 whole entry W197A): as the sequence (O43557 whole entry G188A) above, with A188G, W197A counted along it
Procedure: as §1

[14] = target: Full length LIGHT W198A on HEK293FF cells (Homo sapiens (Human), UniProt O43557 1-240); test: flow cytometry, HEK293FF, mAb at EC50
Sequence of Full length LIGHT W198A on HEK293FF cells (O43557 whole entry W198A): as the sequence (O43557 whole entry G188A) above, with A188G, W198A counted along it
Procedure: as §1

[15] = target: T2, Human LIGHT-32L, on II23 cells (human, UniProt O43557 1-240); test: flow cytometry on II23-LIGHT 32L cells, 4 ug mAb in 100 uL, goat anti-human Fc gamma-PE; signal as % of the commercial anti-LIGHT-PE
T2 construct: also called II23-LIGHT 32L
T2 chain: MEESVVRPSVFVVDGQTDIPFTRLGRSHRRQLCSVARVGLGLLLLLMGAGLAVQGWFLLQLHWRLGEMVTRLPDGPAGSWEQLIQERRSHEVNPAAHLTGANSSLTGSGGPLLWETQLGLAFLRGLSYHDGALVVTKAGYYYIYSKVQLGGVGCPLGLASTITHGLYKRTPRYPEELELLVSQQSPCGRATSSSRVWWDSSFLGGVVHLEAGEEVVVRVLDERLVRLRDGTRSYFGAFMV
Procedure: The cells were suspended at 1×10⁷ cells/ml and 100 uL aliquots were placed into wells of a 96-well plate, the cells spun down and washed in FACS buffer at 1800 rpm for 2 min. The cells were blocked with 1:100 dilution of anti-CD16/CD32 (eBioscience, San Diego, USA) in FACS buffer for 20 min at room temperature and then washed 1× in FACS buffer at 1800 rpm for 2 min. The cells were then resuspended in 100 uL FACS buffer+4 ug anti-membrane LIGHT mAbs or anti-LIGHT-PE (eBioscience, lot: E01621-1632) for 30 min in the dark at room temperature, followed by washing 1× in FACS buffer at 1800 rpm for 2 min and then resuspended in 100 uL FACS buffer plus 1:100 goat anti-human Fcγ-PE secondary antibody or no secondary antibody at 4° C. in the dark for 30 min. The cells were again washed 1× in FACS buffer at 1800 rpm for 2 min and fixed in 200 uL 2% paraformaldehyde overnight at 4° C. and read on a flow cytometer.

[16] = target: T1, Human LIGHT stably expressed on EL4 …; test: flow cytometry, EL4-LIGHT cells; remark: listed apart in the source

T1 sequence (O43557 whole entry): as the sequence (O43557 whole entry G188A) above, with A188G counted along it

B1: 3A07 chimeric IgG4 mAb (antibody, V domains shown)
VH: QVQLQQSGAELVRPGAPVTLSCKASDYTFTDSEIHWVKQTPVHGLEWIGEIDPETGGTAYNQKFKGKATLTADKSSSTAYMELRSLTSEDSAVYYCSRETDYFFDYWGQGTTLTVSS
VL: ENVLTQSPAIMSASPGEKVTMTCSASSSVSYMYWYQQRPGSSPRLLIYDTSNLASGVPVRFSGSGSGTSYSLTISRMEAEDAATYYCQQWSSYPLTFGSGTKLEIK
notes: Chimeric human IgG4 (S-to-P, L-to-E) with human CL, as m1; also called Parental 3A07
- IC50, inhibition of IL-8 secretion, HT-29 + EL4-NC-LIGHT cells [1]: 2000 pM
- binding ratio, mAb to LIGHT trimer [2]: 1 mAb per LIGHT trimer
- EC50 [3]: 133 pM
- % of WT binding [4]: 5%
- % of WT binding [5]: 0%
- % of WT binding [6]: 47%
- % of WT binding [7]: 4%
- % of WT binding [8]: 41%
- % of WT binding [9]: 0%
- % of WT binding [10]: 1%
- % of WT binding [11]: 15%
- % of WT binding [12]: 77%
- % of WT binding [13]: 1%
- % of WT binding [14]: 82%
- binding result [15]: binds

B2: 3C10 chimeric IgG4 mAb (antibody, V domains shown)
VH: EVQLQQSGAELVRPGASVTLSCKASDYTFTDSEIHWVKQTPVHGLEWIGEIDPETGGTAYNQKFKGKATLTADKSSSTAYMELRSLTSEDSAVYYCSRETDYFFDYWGQGTTLTVSS
VL: DVVMTQTPAIMSASPGEKVTMTCSASSSVSYMYWYQQKPGSSPRLLIYDTSNLASGVPVRFSGSGSGTSYSLTISRMEAEDAATYYCQQWSSYPLTFGAGTKLELK
notes: Chimeric human IgG4 (S-to-P, L-to-E) with human CL, as m1; also called Parental 3C10
- IC50, inhibition of IL-8 secretion, HT-29 + EL4-NC-LIGHT cells [1]: 1900 pM
- binding ratio, mAb to LIGHT trimer [2]: 1 mAb per LIGHT trimer
- EC50 [3]: 118 pM
- % of WT binding [4]: 3%
- % of WT binding [5]: 0%
- % of WT binding [6]: 40%
- % of WT binding [7]: 3%
- % of WT binding [8]: 35%
- % of WT binding [9]: 0%
- % of WT binding [10]: 0%
- % of WT binding [11]: 6%
- % of WT binding [12]: 78%
- % of WT binding [13]: 0%
- % of WT binding [14]: 86%
- binding result [15]: binds

B3: 2E08 chimeric IgG4 mAb (antibody, V domains shown)
VH: QVQMKESGAELVRPGVSVKISCKGSGYTFTDYAIHWVKQSHAKTLEWIGVISTYYGDASYNQKFKGKATMTVDKSSSTAYMELARLTSDDSAIYYCARSRGEYGNYDAMDYWGQGTSVTVSS
VL: DIVLTQSPASLAVSLGQRATISCKASQSVDYDGDSYMNWYQQKPGQPPKLLIYAASNLESGIPARFSGSGSGTDFTLNIHPVEEEDAATYYCQQSNEDPLTFGAGTKLELK
notes: Chimeric human IgG4 (S-to-P, L-to-E) with human CL, as m1; also called Parental 2E08
- IC50, inhibition of IL-8 secretion, HT-29 + EL4-NC-LIGHT cells [1]: 1800 pM
- binding ratio, mAb to LIGHT trimer [2]: 1 mAb per LIGHT trimer
- EC50 [3]: 2730 pM
- % of WT binding [4]: 44%
- % of WT binding [5]: 2%
- % of WT binding [6]: 93%
- % of WT binding [7]: 22%
- % of WT binding [8]: 122%
- % of WT binding [9]: 0%
- % of WT binding [10]: 3%
- % of WT binding [11]: 43%
- % of WT binding [12]: 99%
- % of WT binding [13]: 0%
- % of WT binding [14]: 83%
- binding result [15]: binds

B4: 3B04_var3 (antibody, V domains shown)
VH: QVQLVQSGAEVKKPGASVKVSCKASGYTFTDYEMHWVRQAPGQGLEWMGEIDPETGDTAYAQKFQGRVTLTADKSTSTAYMEFSSLRSEDTAVYYSCRETDYFFDYWGQGTLVTVSS
VL: DIQMTQSPSSLSASVGDRVTITCGASENIYGALNWYQRKQGKAPQLLIYGATNLADGVSSRFSGSGSGRDYTLTISSLQPEDFATYYCQNVLTTPWTFGQGTKLEIKR
notes: Human IgG4 (S241P, L248E, Kabat); also called 3B04VH3VK1
- EC50 [16]: 320 pM

B5: 3B04_var11 (antibody, V domains shown)
VH: QVQLVQSGAEVKKPGASVKVSCKASGYTFTDYEMHWVRQAPGQGLEWMGEIDPETGDTAYAQKFQGRVTLTADKSTSTAYMEFSSLRSEDTAVYYSCRETDYFFDYWGQGTLVTVSS
VL: DIQMTQSPSSLSASVGDRVTITCGASENIYGALNWYQQKPGKAPKLLIYGATNLADGVPSRFSGSGSGRDYTLTISSLQPEDFATYYCQNVLTTPWTFGQGTKLEIKR
notes: Human IgG4 (S241P, L248E, Kabat); also called 3B04VH3VK3
- EC50 [16]: 370 pM

B6: 3B04_var7 (antibody, V domains shown)
VH: QVQLVQSGAEVKKPGASVKVSCKASGYTFTDYEMHWVRQAPGQGLEWMGEIDPETGDTAYAQKFQGRVTLTADKSTSTAYMEFSSLRSEDTAVYYSCRETDYFFDYWGQGTLVTVSS
VL: DIQMTQSPSSLSASVGDRVTITCGASENIYGALNWYQRKQGKAPKLLIYGATNLADGVPSRFSGSGSGRDYTLTISSLQPEDFATYYCQNVLTTPWTFGQGTKLEIKR
notes: Human IgG4 (S241P, L248E, Kabat); also called 3B04VH3VK2
- EC50 [16]: 230 pM
